Source: article PMC9691602

What was measured:
[1] = molecular target: AcrIF24 (P. aeruginosa prophage); assay: SEC-SAXS
[2] = molecular target: AcrIF24 (P. aeruginosa prophage); assay: cryo-EM structure

AcrIF24 (natural protein)
stoichiometry N [1]: 2 | stoichiometry N [2]: 2
